Reference: PMC9979629 (Antiviral Research, 2023)
Substitutions are numbered along the chain they refer to.

B1: K102.1 (antibody, V domains shown)
VH: EVQLLESGGGLVQPGGSLRLSCAASGFTFSDYAMSWVRQAPGKGLEWVSWIYSGSGNKYYADSVKGRFTISRDNSKNTLYLQMNSLRAEDTAVYYCARFPIARTSNSQSSYDGMDVWGQGTLVTVSS
VL: QSVLTQPPSASGTPGQRVTISCSGSSSNIGSNAVSWYQQLPGTAPKLLIYADNKRPSGVPDRFSGSKSGTSASLAISGLRSEDEADYYCGAWDSSLNAYVFGGGTKLTVL
B2: K102.2 (antibody, V domains shown)
VH: EVQVLESGGGLVQPGGSLRLSCAASGFTFSSYDMSWVRQAPGKGLEWVSGISYSGGSTYYADSVKGRFTISRDNSKNTLYLQMNSLRAEDTAVYYCARDVNFVPLVTFDYWGQGTLVTVSS
VL: B1 VL with I20L, S23T, A33S, S35T, A51D, K54Q, A91T, S94Y, N97S

Molecular target: His-tagged wild-type SARS-CoV-2 RBD (SARS-CoV-2, UniProt P0DTC2)
Experiment: ELISA

Row | Binder | binding result
1 | B1 | binds
2 | B2 | binds
